{
  "source": "paper PMC8685681",
  "key": {"[1]": {"biological_target": "phosphorylation-deficient M1 muscarinic acetylcholine receptor (M1-PD), transfected in HEK293T cells (UniProt P12657)"}, "[2]": {"biological_target": "M1 muscarinic acetylcholine receptor, wild type (M1-WT), transfected in HEK293T cells (UniProt P12657)"}},
  "data": [
    {"substance": "Gq (Gαq, BRET biosensor of Gq activation in HEK cells) (from UniProt P50148 1-359) (natural protein)", "values": [
      {"measurement": "Emax of ACh-stimulated Gq activation (BRET biosensor, decrease in BRET, HEK cells)", "setting": "[1]", "value": 108},
      {"measurement": "Emax of ACh-stimulated Gq activation (BRET biosensor, decrease in BRET, HEK cells)", "setting": "[2]", "value": 100}
    ]},
    {"substance": "β-arrestin-2 (bystander BRET sensor in HEK293T cells) (from UniProt P32121 1-409) (natural protein)", "values": [
      {"measurement": "Emax of ACh-stimulated β-arrestin-2 recruitment (bystander BRET: translocation of β-arrestin-2 to the cell membrane, HEK293T cells)", "setting": "[1]", "value": 40.7},
      {"measurement": "Emax of ACh-stimulated β-arrestin-2 recruitment (bystander BRET: translocation of β-arrestin-2 to the cell membrane, HEK293T cells)", "setting": "[2]", "value": 104}
    ]}
  ]
}
